Experimental data: the supplement of paper PMC9170038

Test system: K4 kissing-loop RNA reporter
Assay: apparent KD of K4 kissing-loop reporter; higher = weaker reporter binding
Details: Eterna round: R107
Procedure: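 RNA-MaP round R107: designed RNA switches with theophylline, tryptophan, arginine or FMN aptamers are transcribed on-chip within common flanks. They are titrated with a labelled K4 kissing-loop RNA reporter in RNA-MaP buffer (100 mM Tris pH 7.5, 80 mM KCl, 4 mM MgCl2), without ligand or with the indicated ligand. Median apparent KD per design.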

[1] = input ligand: theophylline 20 uM
[2] = input ligand: tryptophan 2.4 mM
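Note: bound reporter read as fluorescence of individual clusters on recovered sequencing chips by microscopy, with normalized cluster intensities fitted with a binding model.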

Sequence | apparent KD of K4 kissing-loop reporter (input ligand: FMN 200 uM) | apparent KD of K4 kissing-loop reporter (input ligand: arginine 13.2 mM) | apparent KD of K4 kissing-loop reporter (input ligand: none) | apparent KD of K4 kissing-loop reporter [1] | apparent KD of K4 kissing-loop reporter [2]
AAAAUAAUCCAGUGAUGUUGGUAUGCAGAUACCAGCGACGAAAGUCGCCCUUGGCAGCUGUGGACGUACAAAAUAAGUACGUCCU | 923 nM | 491 nM | 933 nM | 979 nM | 855 nM
AAGUCACAGGCAGGAUAUGCUUAGUAAUAAGGCCAUAUAUACGUAUAGAGUGAUGUUUUGUACCAGGCAGAAGGGCUACAUCCGU [FMN B Excl V3 (+2GCs)] | 876 nM | 503 nM | 882 nM | 650 nM | 597 nM
UUCGAUCAGUGAUGUUGAUCAUCAGUCGAAGGAGCGCUAGAGAUAGCAGGUAGGUCGCGACUGCAAGGUGUGAGAACACCUCGAA [Arg A SS t9a] | 457 nM | 358 nM | 487 nM | 444 nM | 255 nM
GGCAGUGAUGUUGCCAGUGGCAGAUUGGAAGGAGCGUGGUGAGACACAGGUAGGUCGCUAAUUGAAGUUGCUGUCACUAGAAUGC [whbob_Ex_Arginine_A_2t132] | 214 nM | 280 nM | 293 nM | 335 nM | 231 nM
AAUAAAAUCACGGCCGCCACUGAUUUUUUUAUUAGGAGUGAUGUUCCUUUGUCUAUAUACCUUAACAGGACCGGGUGAAUAUUUA [JR_SSTryptoB_Sub022] | 54.3 nM | 93.4 nM | 67.4 nM | 95.5 nM | 52.1 nM
CUUCGAUUAACAGAUACCAGUCACUUUGGAGCCACACACAAGUGAGUGAUGUUCACUUGUGACCCUUGGCAGCUGUUAGUCGAAG [Theo B Ex t1] | 92.8 nM | 75.4 nM | 83.4 nM | 87.6 nM | 88.1 nM
UUCAGUGAUGAUGAACACUGUUGUAUAAACUAGGAUAUGCUGAUAAGCAGAAGGAGUGAUGUUCCGUUCAUCAUCAGAAUUAAAU [KL-XFMN-A4] | 619 nM | 378 nM | 371 nM | 407 nM | 255 nM
CAUACGCAUGGAGGAUAUGGGAUUUCUCAUAUUAACCUGUAUCAGGUAUCUCAGUGAUGUUGAGACUCAGAAGGCCAUGUGUAUG [Ex FMN B 25] | 494 nM | 303 nM | 364 nM | 354 nM | 344 nM
GUGACCUACUCAGGAUAUCCGCAGUGAUGUUGCGGUUGGCCUGAGCGACAUGAAAAUCUUACUACAGGAGAAGGGAGAGGGUUAC [Leanteti] | 113 nM | 92.7 nM | 109 nM | 89.2 nM | 91.5 nM
AAUCAAUACAGAAGGAGCGUGACAAUUACUAUUGAUUCAGGAGCUAGUGAUGUUAGCAUUUCACAGGUAGGUCGCUGUACAUUUA [JR_SSArginiB_Sub013] | 165 nM | 203 nM | 201 nM | 213 nM | 153 nM
GGACCGCCAGUGAUGUUGGAGAUAAACUCCAAGGAUAUGACGAAAGUCAGAAGGUGGUAAUAAGACGUCAAAGACGUCAGGUCCA [FmnA 21 #SwitchBubble #K4Early] | 970 nM | 206 nM | 361 nM | 301 nM | 266 nM
GGUAGCAUGGCGGCCGCCACUGUUCGUGUUGCUAGCAGAUUCCAGUGAUGUUGGAAGCCUAGGUACAGGACCGGGCCAUGCUACC | 105 nM | 115 nM | 131 nM | 102 nM | 103 nM
GCCGUAGAUGGAAGGAGCGUGGUUAAUGUAAGUGAUGUUUACGAGGUUAACAAUUGACCGCCACAGGUAGGUCGCCAUCUACGGC | 84.6 nM | 65.9 nM | 74 nM | 70.5 nM | 70.5 nM
GGAUAGGACAGAGGAUAUGGUAGUGAUGUUACCAAACUGGUUACUAAUGUCAGAAAACUGGCAAAUCCAGAAGGCUGUCCUAUCG [KL-XFMN-B13] | 278 nM | 76.3 nM | 85.2 nM | 69.5 nM | 82.3 nM
AAUAAUGGAGUGAUGUUCCAGUAAUGGGAUACCAGACAUGAAAAUGUCCCUUGGCAGCUCAAAGGUCUAGUGAUGUUAGAAAGAA [KL-SSTheo-A5 #Double Kiss] | 273 nM | 300 nM | 310 nM | 282 nM | 232 nM
UGGAUAUAGUGAUGUUAUAUAGAGAUGGAUACCAGUUUAGAGAAGAGCCCUUGGCAGCCGAAAGAAGUAUCAUUAGAGAAGAAUG [ExTheophyl.Al] | 257 nM | 164 nM | 214 nM | 212 nM | 179 nM
AGUUCUUGCCGAAGGAGCGAGGCAGAGUGAUGUUCUGCAGGAGGUCGAAAGACCUCCCUGCCUCAGGUAGGUCGCGGCAUGAACA [Omei KL Arginine B Exc A v1] | 587 nM | 590 nM | 1250 nM | 566 nM | 478 nM
GAAAGAAAGUAUGAUACCAGACACCCGAGUGAUGUUCGGAGCAGUGUGAUGUUCUUUUAAGUCCCUUGGCAGCAUAAAAGAAAAG [whbob_SS_Theo_B_sa84] | 122 nM | 142 nM | 126 nM | 101 nM | 91.7 nM
ACCAUUUUACCGGCAGUAGUGAUGUUACUCCGAGGACCGGUACGGCCGCCACUCGCGAACGUAGGGUCGCGCACUCAAAGAGUGC | 100 nM | 75.6 nM | 106 nM | 67 nM | 89.7 nM
AUCGUUGUCUGAGGAUAUCGUUUAACUGUAGUGAUGUUACAGAAAAUUCAUAUUAUAUUUUCUAUUCGAGAAGGCAGACUACGUA [JR_ExcFMNB_Sub016] | 172 nM | 133 nM | 135 nM | 123 nM | 138 nM
GCUAUGGUUGGAAGGAGCGUUGAAUUGUUAGUAAGAGUGAUGUUCGAUAGUGGACAGUUGUAGCAGGUAGGUCGCCAACUAUAGC [KL-Arg B28] | 329 nM | 570 nM | 277 nM | 560 nM | 520 nM
UGAUAGGACAGAAGGAGCGGUAGUGAUGUUGCCAAAAGAAUAAGGUGUCAAAAGACACCCUGCCAGGUAGGUCGCUGUCCUAUCU | 139 nM | 189 nM | 144 nM | 188 nM | 120 nM

Sequence | apparent KD of K4 kissing-loop reporter (input ligand: FMN 200 uM) | apparent KD of K4 kissing-loop reporter (input ligand: arginine 13.2 mM) | apparent KD of K4 kissing-loop reporter (input ligand: none) | apparent KD of K4 kissing-loop reporter [1] | apparent KD of K4 kissing-loop reporter [2]
CGAGUGAUGUUCGAAGAGUUGUUAAGCGAUACCAGCUAGGAAACUGGCCCUUGGCAGCGUAAUAAGUUAAUAAAUAAAUGAUCAC [whbob_Ex_Theo_A_th64] | 376 nM | 411 nM | 360 nM | 449 nM | 301 nM
AACAGCAAUGCGGCCGCCACUUCGAGGUCAGUGAUGUUGACGGGAUUAAAUAAAGAUCCCAAGAGGAGGACCGGGCAGUGCUGUU [whbob_SS_Tryp_B_t26] | 225 nM | 195 nM | 215 nM | 176 nM | 192 nM
AAUACAGUGUCGGCCGCCACUGUAACAUGCCAUGAGACAUGAGACAUGAGUGAUGUUCAUGUAGACAGGACCGGGACUCAUGUAU [KL-SSTryp-B3 #analogue] | 450 nM | 373 nM | 455 nM | 370 nM | 227 nM
UGAUACCAGACGGCCGCCACUUCUGCAAGUCAAAGACUUGCUAAAGGAAUCGUCCAGUGAUGUUGGAGGACCGGGUCUGGUAUCU [FiskerMod 1 - Jieux - Exclusion - Tryptophan B] | 1020 nM | 823 nM | 1170 nM | 638 nM | 772 nM
CGCGCGCGCUUGAGAGGGCGCGCGCGAAGUGAGGAUAUUUAGGGAGAAAGAAGGCACUAUAAAAUAUAGUGAUGUUAUAUAAGGG [SSFMNA.E] | 1180 nM | 240 nM | 468 nM | 2790 nM | 441 nM
UGGGAUGUUAAAGGAUAUAGCAAGUGAUAUAAGAAAGUGAGUGAUGUUGAUGUAGGUGAUGAUAUGUUAGAAGGUUAACAAAACG [abcdefg] | 350 nM | 217 nM | 356 nM | 294 nM | 257 nM
AAAAUAAACCAGUGAUGUUGGUGUCCAGAUACCAGCGAUAAUAAUCGCCCUUGGCAGCUGCGGACGUACAAAAUAAGUACGUCCU [MatMod 11 - Jieux - Same State - Theophylline A] | 482 nM | 351 nM | 513 nM | 294 nM | 408 nM
GGUAGCAUGGCGGCCGCCACUAUAAAGAAUCCAAAGGAUUCUAGGUAGUGAUGUUACCAUAGCUAUAGGACCGGGCCAUGCUACC | 156 nM | 120 nM | 174 nM | 121 nM | 56.5 nM
CUGGUUCAGUGAUGUUGGAAGGUUUAGGUGAAGGAUAUAUUGCAUAAUAGAAGGUCACGGCCAUGCAAUUAUUAACGUAGCCUGU [theeternabot_exclusion_KL_FMN_A_3] | 279 nM | 114 nM | 172 nM | 126 nM | 158 nM
GUGCAAAGCACCGGCACGAGCAGCCUAAAGGAGGAUAUGACGAAAGUCAGAAGGUCUAGUGAUGUUAGGCCUUGCUUGAGUCGAA [Omei KL FMN A Exc B v3] | 288 nM | 278 nM | 402 nM | 405 nM | 327 nM
AAACGUUGGUCUGAUACCAGCUUGAUCGGUAAACGAUCUACUGGAGUGAUGUUCCUAAAUAGCCCUUGGCAGCAGACCGACGAAA [MAT - Same State Theophlline B - Mod of Eli - D7] | 195 nM | 163 nM | 173 nM | 118 nM | 170 nM
UGAUACCAGACGGCCGCCACUCCCGUAAGUCAAAGACUUACCAAGAGAAUCGUCCAGUGAUGUUGGAGGACCGGGUCUGGUAUCU [FiskerMod 8 - Jieux - Exclusion - Tryptophan B] | 922 nM | 845 nM | 998 nM | 732 nM | 682 nM
GACUACCGGGCGGCCGCCACUGGGCUCCGAGUGAUGUUCGGAAAGACUCAUACACUGCUGUCAGACAGGACCGGGCCAAGGCGCA [theeternabot_sameState_KL_Trp_B_5] | 145 nM | 170 nM | 172 nM | 201 nM | 151 nM
UGAUACCAGACUGAUACCAGCAAGUGAUGUUUGUUGAUCUAAAGCAGUCAAAGACUGCCUUGCCCUUGGCAGCAGUCUGGUAUCU [TheoBX 27 #SwitchBubble #StaticStem] | 886 nM | 569 nM | 832 nM | 354 nM | 901 nM
GAACGGAGUGAUGUUCCGUUGACGAUCCUACGAGGACCGGUACGGCCGCCACUCGUAUUGCAGUGAUGUUGCAACCAGCCGUACU [Exclusion Tryptophan A GF 10] | 104 nM | 112 nM | 102 nM | 106 nM | 87.9 nM
GUUACGCAUGGAAGGAGCGCUCUCCGGUUGAUUGACACAGUGAUGUUGUGAUUCUACCGUAAGCAGGUAGGUCGCCAUGUGUAAC [Ex Arginine B K4 13] | 950 nM | 809 nM | 1210 nM | 1050 nM | 921 nM
UGUACCGAGUCAGGAUAUGGCGUCGAAAGACGAAUCCUAGUGAUGUUAGGGAUCUGCGAAAGCAGUCCAGAAGGGACUUGGUACU [FmnBS 26 #SwitchBubble #StaticStem #DoubleMagnetSystem] | 275 nM | 340 nM | 357 nM | 389 nM | 373 nM
GUCCACACUGCAGGAUAUGGAGGUAUAGCGAGGGAGUUUGGAAGCACACCUCUGGCAGUGAUGUUGCCAGAAGGGCGGUGCGGCG [Rauserin] | 82.4 nM | 89.5 nM | 99.2 nM | 64.3 nM | 83.9 nM
UUAUAUCUCUGACUUUCACUUUGCGUAUCUGAGGAUAUCUGAAUUCAGAGAAGGCAGUGAUGUUGCUUUGCUGUGUGUCUGAGAA [AK2 Exc FMN A] | 702 nM | 464 nM | 526 nM | 499 nM | 372 nM
UGUAUGUGUCAGCGAGUGAUGUUCGACGAUACCAGACUCGAUAGAGUCCCUUGGCAGCGUAAUGCAUGCCAAACUGGCACAUACU [#SwitchBubble 13 #K4Early] | 657 nM | 532 nM | 682 nM | 594 nM | 600 nM
CGGAUGUAGUGAUGUUAUAUAAGAUGUAGACGAGGACCGGUACGGCCGCCACUCGAAACGGCUACUAGCGCGUUGCGAGGUGUGC [ExTryptoA.CI] | 952 nM | 460 nM | 960 nM | 674 nM | 514 nM
